What is called Kd is a measure of binding affinity in units of concentration.

Targets include HLA-A*02:02; HLA-A*02:03; HLA-A*02:06.
Common to all, as to assay: IEDB peptide-MHC binding, purified MHC/competitive/radioactivity; filed as Kd, often an IC50 or EC50 that approximates it; ≥ and ≤ were set here for values at or beyond the usual limits of such assays
[1] abbreviates: source organism: Vaccinia virus WR.
Setting [2] is: source organism: Mammarenavirus whitewaterense.
[3] abbreviates: source organism: Mammarenavirus juninense.
[4] abbreviates: source organism: SARS coronavirus Tor2.
Setting [5] is: source organism: Mammarenavirus brazilense.

Regarding PLKDVERLQM, the Kd with HLA-A*02:02 (setting [1]) was 6160 nM; with HLA-A*02:03 (setting [1]), not below 44000 nM; with HLA-A*02:06 (setting [1]), not below 37300 nM.

Consider CVDHPFIYVI, for which the results for the Kd in the assay with HLA-A*02:02 (setting [1]), with HLA-A*02:03 (setting [1]) and with HLA-A*02:06 (setting [1]) were 964 nM, 10800 nM and 1610 nM, respectively.

With FSAVISGSV, the Kd came out at 48.2 nM in the assay with HLA-A*02:02 (setting [2]), 14100 nM with HLA-A*02:03 (setting [2]) and 161 nM in the assay with HLA-A*02:06 (setting [2]).

As for WLGAAITLVV, the results for the Kd in the assay with HLA-A*02:02 (setting [1]), with HLA-A*02:03 (setting [1]) and in the assay with HLA-A*02:06 (setting [1]) were 19.7 nM, 78.4 nM and 1840 nM, respectively.

For the sequence IISTDQDTM, the equilibrium dissociation constant (Kd) with HLA-A*02:02 (setting [1]) was 4300 nM; with HLA-A*02:03 (setting [1]), not below 33200 nM; in the assay with HLA-A*02:06 (setting [1]) it was 2360 nM.

Consider LNIALVAVSL, for which the dissociation constant Kd turned out to be 179 nM with HLA-A*02:02 (setting [3]), 12400 nM with HLA-A*02:03 (setting [3]) and 13100 nM in the assay with HLA-A*02:06 (setting [3]).

For AIYVFCISL, the dissociation constant (Kd) with HLA-A*02:02 (setting [4]) was determined as 143 nM; with HLA-A*02:03 (setting [4]) it was 201 nM; with HLA-A*02:06 (setting [4]), 47.7 nM.

For LINLVQYRIL, the Kd with HLA-A*02:02 (setting [1]) worked out at 2120 nM; in the assay with HLA-A*02:03 (setting [1]) it was 2250 nM; with HLA-A*02:06 (setting [1]) it was 15900 nM.

Take FVNFVKDMI: the results for the Kd with HLA-A*02:02 (setting [1]), with HLA-A*02:03 (setting [1]) and with HLA-A*02:06 (setting [1]) were 55.2 nM, 124 nM and 229 nM, respectively.

As to LISSDGARVI, the dissociation constant Kd was 7180 nM with HLA-A*02:02 (setting [1]), 1150 nM in the assay with HLA-A*02:03 (setting [1]) and not below 35000 nM with HLA-A*02:06 (setting [1]).

In the case of HSLPRCWLV, the Kd with HLA-A*02:02 (setting [5]) came to 654 nM; with HLA-A*02:03 (setting [5]) it was 146 nM; with HLA-A*02:06 (setting [5]) it was 322 nM.

Take TLFGRGVIDT: the Kd was found to be 199 nM with HLA-A*02:02 (setting [1]), 95.6 nM with HLA-A*02:03 (setting [1]) and 3310 nM with HLA-A*02:06 (setting [1]).

With DQLVFNSISA, the Kd is 206 nM with HLA-A*02:02 (setting [1]), 289 nM in the assay with HLA-A*02:03 (setting [1]) and 759 nM with HLA-A*02:06 (setting [1]).

As to QAKKPEVRI, the dissociation constant Kd was 738 nM with HLA-A*02:02 (setting [1]), 6570 nM with HLA-A*02:03 (setting [1]) and not below 41900 nM with HLA-A*02:06 (setting [1]).

As to IINSVSIILA, the Kd with HLA-A*02:02 (setting [1]) was 719 nM; with HLA-A*02:03 (setting [1]), 890 nM; in the assay with HLA-A*02:06 (setting [1]), 957 nM.

With FLAFLLFLVL, the values for the Kd with HLA-A*02:02 (setting [4]), with HLA-A*02:03 (setting [4]) and in the assay with HLA-A*02:06 (setting [4]) were 13.2 nM, 245 nM and 2000 nM, respectively.

Turning to ELAYYNSCML, the Kd with HLA-A*02:02 (setting [1]) stood at 1870 nM; in the assay with HLA-A*02:03 (setting [1]), 151 nM; with HLA-A*02:06 (setting [1]), 3570 nM.

Take KTVAGSFAS: the equilibrium dissociation constant (Kd) with HLA-A*02:02 (setting [2]) was found to be 1590 nM; with HLA-A*02:03 (setting [2]) it was 3810 nM; with HLA-A*02:06 (setting [2]) it was 9130 nM.

Regarding MVEYLENQL, the Kd with HLA-A*02:02 (setting [1]) was 343 nM; in the assay with HLA-A*02:03 (setting [1]), 6460 nM; in the assay with HLA-A*02:06 (setting [1]), 3960 nM.

In the case of MAFDISVNA, the dissociation constant (Kd) in the assay with HLA-A*02:02 (setting [1]) was 191 nM; with HLA-A*02:03 (setting [1]) it was 15.1 nM; with HLA-A*02:06 (setting [1]), 13.2 nM.

ALVSDCAST: the dissociation constant (Kd) with HLA-A*02:02 (setting [1]) worked out at 701 nM; in the assay with HLA-A*02:03 (setting [1]) it was 31.1 nM; in the assay with HLA-A*02:06 (setting [1]) it was 311 nM.

In the case of HQRRLVKLL, the equilibrium dissociation constant (Kd) is 15900 nM with HLA-A*02:02 (setting [1]), 1680 nM with HLA-A*02:03 (setting [1]) and not below 21300 nM in the assay with HLA-A*02:06 (setting [1]).

YIILFILFFA: the dissociation constant (Kd) with HLA-A*02:02 (setting [1]) was 263 nM; with HLA-A*02:03 (setting [1]) it was 674 nM; with HLA-A*02:06 (setting [1]) it was 1050 nM.

With VMFNGVTFST, the equilibrium dissociation constant (Kd) with HLA-A*02:02 (setting [4]) came out at 0.69 nM; in the assay with HLA-A*02:03 (setting [4]), 75.2 nM; in the assay with HLA-A*02:06 (setting [4]), 131 nM.

As for GIIITVGML, the Kd was 8670 nM with HLA-A*02:02 (setting [1]), 349 nM in the assay with HLA-A*02:03 (setting [1]) and 18400 nM with HLA-A*02:06 (setting [1]).

With TIDAINKCV, the results for the equilibrium dissociation constant (Kd) with HLA-A*02:02 (setting [1]), with HLA-A*02:03 (setting [1]) and in the assay with HLA-A*02:06 (setting [1]) were 90.1 nM, 634 nM and 406 nM, respectively.

On to LTKDRKMLEL, for which the results for the dissociation constant (Kd) in the assay with HLA-A*02:02 (setting [1]), with HLA-A*02:03 (setting [1]) and in the assay with HLA-A*02:06 (setting [1]) were 7700 nM, 133 nM and not below 20800 nM, respectively.

With LIVILFIMFM, the equilibrium dissociation constant (Kd) amounted to 85.1 nM with HLA-A*02:02 (setting [1]), 433 nM with HLA-A*02:03 (setting [1]) and 120 nM in the assay with HLA-A*02:06 (setting [1]).

Turning to FIASAPQQL, the figures for the equilibrium dissociation constant (Kd) with HLA-A*02:02 (setting [1]), with HLA-A*02:03 (setting [1]) and with HLA-A*02:06 (setting [1]) were 1.97 nM, 4.39 nM and 89.4 nM, respectively.

For IAGGVCYYLL, the results for the Kd in the assay with HLA-A*02:02 (setting [1]), with HLA-A*02:03 (setting [1]) and with HLA-A*02:06 (setting [1]) were 4580 nM, 14600 nM and 656 nM, respectively.

VIVVPVIDRL: the figures for the Kd in the assay with HLA-A*02:02 (setting [1]), in the assay with HLA-A*02:03 (setting [1]) and with HLA-A*02:06 (setting [1]) were 4570 nM, not below 59000 nM and 11100 nM, respectively.

For LVIRNEVNDT, the Kd was found to be 5500 nM with HLA-A*02:02 (setting [1]), 15200 nM with HLA-A*02:03 (setting [1]) and 2170 nM in the assay with HLA-A*02:06 (setting [1]).

For the origin of these results see the Immune Epitope Database (IEDB).
